# Results published in patent US20220249561A1.
# Target: ALK 001P
# Assay: flow cytometry; CAR-T cells incubated with ALK 001P, detected with PE anti-His tag antibody and APC anti-CD3
# ALK 001P, sequence (chain, as listed by the source limits assumed): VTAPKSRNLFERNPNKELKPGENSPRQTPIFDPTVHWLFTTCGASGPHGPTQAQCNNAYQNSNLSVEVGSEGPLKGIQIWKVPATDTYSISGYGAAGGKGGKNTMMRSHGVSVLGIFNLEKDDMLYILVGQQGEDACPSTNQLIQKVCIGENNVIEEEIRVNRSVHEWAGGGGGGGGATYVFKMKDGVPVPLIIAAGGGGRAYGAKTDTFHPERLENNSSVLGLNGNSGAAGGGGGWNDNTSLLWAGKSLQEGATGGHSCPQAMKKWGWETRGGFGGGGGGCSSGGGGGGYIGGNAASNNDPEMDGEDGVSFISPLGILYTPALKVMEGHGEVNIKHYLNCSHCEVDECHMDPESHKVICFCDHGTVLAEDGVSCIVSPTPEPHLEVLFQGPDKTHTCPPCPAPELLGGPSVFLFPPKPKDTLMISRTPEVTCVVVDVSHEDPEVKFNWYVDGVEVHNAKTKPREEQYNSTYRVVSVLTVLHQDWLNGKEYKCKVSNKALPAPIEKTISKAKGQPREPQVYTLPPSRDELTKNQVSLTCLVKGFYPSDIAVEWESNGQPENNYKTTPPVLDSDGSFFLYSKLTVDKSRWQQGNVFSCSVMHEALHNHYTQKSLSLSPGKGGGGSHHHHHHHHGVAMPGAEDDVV
binder,measurement,value
CAR 021 (FAM150BTr-28z dCH2CH3) (protein) AEAAGLGPSPEQRVEIVPRDLRMKDKFLKHLTGPLYFSPKCSKHFHRLYHNTRDCTIPAYYKRCARLLTRLAVSPVCMEDKQEPKSCDKTHTCPPCDPAEPKSPDKTHTCPFWVLVVVGGVLACYSLLVTVAFIIFWVRSKRSRLLHSDYMNMTPRRPGPTRKHYQPYAPPRDFAAYRSRVKFSRSADAPAYQQGQNQLYNELNLGRREEYDVLDKRRGRDPEMGGKPRRKNPQEGLYNELQKDKMAEAYSEIGMKGERRRGKGHDGLYQGLSTATKDTYDALHMQALPPR,Expression rate (% of cells positive for ALK 001P staining),24.1%
